The data set deals with the molecule itself. In words: SEC + other: SDS-PAGE.

B1: dLanYFP (other)
chain: MSLPATHELHIFGSFNGVDFDMVGRGTGNPNDGYEELNLKSTKGALQFSPWILVPQIGYGFHQYLPFPDGMSPFQAAMKDGSGYQVHRTMQFEDGASLTSNYRYTYEGSHIKGEFQVKGTGFPADGPVMTNSLTAADWCVTKMLYPNDKTIISTFDWTYTTGSGKRYQSTVRTTYTFAKPMAANILKNQPMFVFRKTELKHSKTELNFKEWQKAFTDVM
Take B1: the stoichiometry N (as a rule, a count of units in the complex or per binding partner) was found to be 2.
